Measurements reported in US20160120951A1 (ZEALAND PHARMA A S, published 2016).
Read-outs that look alike come from different tables or passages of the source. Numbered stars: 1 amine (or outer) side, 2 acyl side, 3 side chain; on linkers, the order of the positions; unused ones are H or OH. Square brackets hold non-standard residues; d marks the D form. Side chains are listed from the residue outwards. Ends that are not written are not given here. * marks the point of attachment. isoGlu = used interchangeably with γ-Glu; γGlu = O=C(O)[C@H](CCC(=O)[*:2])N[*:1]; Palmitoyl = CCCCCCCCCCCCCCCC(=O)*; Aib = CC(C)(N)C(=O)O

How the values were obtained:
Assay in all cases: cell-based or functional assay
[1] = biological target: T1, human glucagon-like peptide 1 receptor (GLP-1R) (human, UniProt P43220 24-463)
[2] = biological target: T2, human glucagon receptor (Glucagon-R) (human, UniProt P47871 26-477)
[3] = biological target: T1, human glucagon-like peptide 1 receptor …; remark: listed apart in the source
[4] = biological target: T2, human glucagon receptor (Glucagon-R); remark: listed apart in the source

T1 sequence (P43220 24-463): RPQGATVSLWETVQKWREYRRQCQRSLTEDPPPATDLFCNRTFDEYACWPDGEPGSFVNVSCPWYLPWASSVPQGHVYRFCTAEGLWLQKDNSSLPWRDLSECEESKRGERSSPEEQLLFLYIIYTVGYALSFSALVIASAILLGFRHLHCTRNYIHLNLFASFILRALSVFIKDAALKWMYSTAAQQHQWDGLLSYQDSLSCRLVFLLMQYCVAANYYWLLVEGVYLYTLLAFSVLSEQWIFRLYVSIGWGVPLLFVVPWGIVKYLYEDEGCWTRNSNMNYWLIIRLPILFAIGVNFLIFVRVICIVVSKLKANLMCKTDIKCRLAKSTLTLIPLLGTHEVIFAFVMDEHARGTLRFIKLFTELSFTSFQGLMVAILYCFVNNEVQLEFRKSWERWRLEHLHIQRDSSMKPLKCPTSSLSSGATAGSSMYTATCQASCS

Row | Binder | EC50 (nM) GLP-1R, cAMP formation [1] [nM] | EC50 (nM) GluR, cAMP formation [2] [nM] | EC50 (nM) GLP-1R, cAMP formation [3] [nM] | EC50 (nM) GluR, cAMP formation [4] [nM]
1 | H-H[Aib]QGTFTSDYSKYLDSK([isoGlu-Palmitoyl])AAKDFVEWLLSA-NH2 [Compound 39] | 0.16 | 0.24 |  | 
2 | HXQGTFTSDYSKYLDSKAAHDFVEWLLSA (Aib at position 2; K(Hexadecanoyl-isoGlu) at position 12; C-terminal amide (NH2)) [Compound 33] | 0.131 | 0.389 |  | 
3 | H-HSQGTFTSDYSKYLDSKAAHDFVEWLLK([γGlu-Palmitoyl])A-NH2 (SMILES CCCCCCCCCCCCCCCC(=O)N[C@@H](CCC(=O)NCCCC[C@H](NC(=O)[C@H](CC(C)C)NC(=O)[C@H](CC(C)C)NC(=O)[C@H](Cc1c[nH]c2ccccc12)NC(=O)[C@H](CCC(=O)O)NC(=O)[C@@H](NC(=O)[C@H](Cc1ccccc1)NC(=O)[C@H](CC(=O)O)NC(=O)[C@H](Cc1c[nH]cn1)NC(=O)[C@H](C)NC(=O)[C@H](C)NC(=O)[C@H](CCCCN)NC(=O)[C@H](CO)NC(=O)[C@H](CC(=O)O)NC(=O)[C@H](CC(C)C)NC(=O)[C@H](Cc1ccc(O)cc1)NC(=O)[C@H](CCCCN)NC(=O)[C@H](CO)NC(=O)[C@H](Cc1ccc(O)cc1)NC(=O)[C@H](CC(=O)O)NC(=O)[C@H](CO)NC(=O)[C@@H](NC(=O)[C@H](Cc1ccccc1)NC(=O)[C@@H](NC(=O)CNC(=O)[C@H](CCC(N)=O)NC(=O)[C@H](CO)NC(=O)[C@@H](N)Cc1c[nH]cn1)[C@@H](C)O)[C@@H](C)O)C(C)C)C(=O)N[C@@H](C)C(N)=O)C(=O)O) [Compound 6] |  |  | 0.09 | 0.1
4 | H-H[Aib]QGTFTSDYSKYLDSKAAK([γGlu-Palmitoyl])DFVEWLLSA-NH2 (SMILES CCCCCCCCCCCCCCCC(=O)N[C@@H](CCC(=O)NCCCC[C@H](NC(=O)[C@H](C)NC(=O)[C@H](C)NC(=O)[C@H](CCCCN)NC(=O)[C@H](CO)NC(=O)[C@H](CC(=O)O)NC(=O)[C@H](CC(C)C)NC(=O)[C@H](Cc1ccc(O)cc1)NC(=O)[C@H](CCCCN)NC(=O)[C@H](CO)NC(=O)[C@H](Cc1ccc(O)cc1)NC(=O)[C@H](CC(=O)O)NC(=O)[C@H](CO)NC(=O)[C@@H](NC(=O)[C@H](Cc1ccccc1)NC(=O)[C@@H](NC(=O)CNC(=O)[C@H](CCC(N)=O)NC(=O)C(C)(C)NC(=O)[C@@H](N)Cc1c[nH]cn1)[C@@H](C)O)[C@@H](C)O)C(=O)N[C@@H](CC(=O)O)C(=O)N[C@@H](Cc1ccccc1)C(=O)N[C@H](C(=O)N[C@@H](CCC(=O)O)C(=O)N[C@@H](Cc1c[nH]c2ccccc12)C(=O)N[C@@H](CC(C)C)C(=O)N[C@@H](CC(C)C)C(=O)N[C@@H](CO)C(=O)N[C@@H](C)C(N)=O)C(C)C)C(=O)O) [Compound 35] | 0.202 | 0.18 |  | 
5 | H[Aib]QGTFTSDYSKYLDSK([isoGlu-Palmitoyl])AAHEFVEWLLSA-NH2 [Compound 41] | 0.13 | 0.08 |  | 
6 | H-H[Aib]QGTFTSDYSKYLDSK([isoGlu-Palmitoyl])AAHDFVEWLLEA-NH2 [Compound 43] | 0.082 | 0.12 |  | 
7 | H-HSQGTFTSDYSKYLDSKAAHDFVEWLK([γGlu-Palmitoyl])RA-NH2 (SMILES CCCCCCCCCCCCCCCC(=O)N[C@@H](CCC(=O)NCCCC[C@H](NC(=O)[C@H](CC(C)C)NC(=O)[C@H](Cc1c[nH]c2ccccc12)NC(=O)[C@H](CCC(=O)O)NC(=O)[C@@H](NC(=O)[C@H](Cc1ccccc1)NC(=O)[C@H](CC(=O)O)NC(=O)[C@H](Cc1c[nH]cn1)NC(=O)[C@H](C)NC(=O)[C@H](C)NC(=O)[C@H](CCCCN)NC(=O)[C@H](CO)NC(=O)[C@H](CC(=O)O)NC(=O)[C@H](CC(C)C)NC(=O)[C@H](Cc1ccc(O)cc1)NC(=O)[C@H](CCCCN)NC(=O)[C@H](CO)NC(=O)[C@H](Cc1ccc(O)cc1)NC(=O)[C@H](CC(=O)O)NC(=O)[C@H](CO)NC(=O)[C@@H](NC(=O)[C@H](Cc1ccccc1)NC(=O)[C@@H](NC(=O)CNC(=O)[C@H](CCC(N)=O)NC(=O)[C@H](CO)NC(=O)[C@@H](N)Cc1c[nH]cn1)[C@@H](C)O)[C@@H](C)O)C(C)C)C(=O)N[C@@H](CCCNC(=N)N)C(=O)N[C@@H](C)C(N)=O)C(=O)O) [Compound 5] |  |  | 0.57 | 0.22
8 | H-H[Aib]QGTFTSDYSKYLDEK([isoGlu-Palmitoyl])AAHDFVEWLLSA-NH2 [Compound 40] | 0.2 | 0.18 |  | 
9 | H-H[Aib]QGTFTSDYSKYLDSKAAHDFVK([isoGlu-Palmitoyl])WLLSA-NH2 [Compound 36] | 0.191 | 0.213 |  | 
10 | H-H[Aib]QGTFTSDYSKYLDSK([isoGlu-Palmitoyl])AAEDFVEWLLSA-NH2 [Compound 42] | 0.03 | 0.27 |  | 
11 | HXQGTFTSDYSKYLDSKAAHDFVEWLLSA (Aib at position 2; K(Hexadecanoyl-γ-Glu) at position 17; C-terminal amide (NH2)) [Compound 7] |  |  | 0.11 | 0.16
12 | H-H[Aib]QGTFTSDYSKYLDSKAAHDFVEWLLK([isoGlu-Palmitoyl])A-NH2 [Compound 37] | 0.207 | 0.147 |  | 
13 | H-H[Aib]QGTFTSDYSKYLDK([γGlu-Palmitoyl])KAAHDFVEWLLSA-NH2 (SMILES CCCCCCCCCCCCCCCC(=O)N[C@@H](CCC(=O)NCCCC[C@H](NC(=O)[C@H](CC(=O)O)NC(=O)[C@H](CC(C)C)NC(=O)[C@H](Cc1ccc(O)cc1)NC(=O)[C@H](CCCCN)NC(=O)[C@H](CO)NC(=O)[C@H](Cc1ccc(O)cc1)NC(=O)[C@H](CC(=O)O)NC(=O)[C@H](CO)NC(=O)[C@@H](NC(=O)[C@H](Cc1ccccc1)NC(=O)[C@@H](NC(=O)CNC(=O)[C@H](CCC(N)=O)NC(=O)C(C)(C)NC(=O)[C@@H](N)Cc1c[nH]cn1)[C@@H](C)O)[C@@H](C)O)C(=O)N[C@@H](CCCCN)C(=O)N[C@@H](C)C(=O)N[C@@H](C)C(=O)N[C@@H](Cc1c[nH]cn1)C(=O)N[C@@H](CC(=O)O)C(=O)N[C@@H](Cc1ccccc1)C(=O)N[C@H](C(=O)N[C@@H](CCC(=O)O)C(=O)N[C@@H](Cc1c[nH]c2ccccc12)C(=O)N[C@@H](CC(C)C)C(=O)N[C@@H](CC(C)C)C(=O)N[C@@H](CO)C(=O)N[C@@H](C)C(N)=O)C(C)C)C(=O)O) [Compound 34] | 0.109 | 0.053 |  | 
